Legend:
[1] = test system: ^177Lu-octreotide PRRT kidney damage mouse model; experiment: Short-term radioprotection of kidneys with A1M in PRRT (^177Lu-octreotide PRRT kidney damage mouse model)
Description: NB, ^177Lu-DOTATATE and A1M are injected separately at T=0. Analytic Methods:
The mice were left for 1 day or 8 days, and then sacrificed with sampling of plasma and urine, as described above.

[2] = patients treated with PRRT; cited from earlier work
[3] = mouse, in vivo, iv
Description: Organ-specific uptake values were calculated as percent injected activity per gram of tissue (% IA/g) or percent injected activity (% IA).

[4] = in vivo, iv
[5] = SDS-PAGE / Western blotting of injected non-labelled A1M in kidneys and serum; assay type: in vivo, NMRI mice
Description: SDS-PAGE analysis was performed on kidneys and serum from animals that had been injected i.v. with non-labeled A1M (100 μl/animal, 1.5 mg/ml). Animals were terminated at 10, 20 and 60 minutes post-injection, blood and kidneys were sampled and kidneys were washed and placed in 1 ml PBS. Following mechanical tissue homogenization, tissue was centrifuged at 10,000×g for 10 minutes and supernatant was transferred to a new tube and used for further analysis as describe below. Serum was obtained from the blood samples by centrifugation at 1,000×g for 10 minutes. SDS-PAGE gels were run under reducing conditions and the separated proteins were transferred to polyvinylidene difluoride (PVDF) membranes (Immobilon-P, Millipore, Bedford, Mass., USA) using Trans-Blot Turbo transfer system (Bio-Rad, Delaware, USA). […] The membranes were developed using a ChemiDoc MP Imaging system (BioRad).

[6] = Immunohistochemistry and confocal fluorescence microscopy of A1M and octreotide-647 in kidney sections; parameters: species or system mice; conditions: mouse, in vivo
Description: However, only wild-type data are included. After euthanization, kidneys were removed directly frozen and embedded in Tissue Tec. […] Serial sectioning was performed, collecting 3-4 sections per slide, of which adjacent slides were used for either chromogen immunohistochemistry (IHC) or immunofluorescence (IF) labeling. Sections were post-fixed in 4% paraformaldehyde (PFA, Sigma, St. Louis, Mo., USA, dissolved in PBS, 0.1 M, pH 7.4) for 15 minutes, and rinsed in PBS two times for 5 minutes. For single labeling of […], sections were incubated with 0.03% hydrogen peroxide (H2O2, Merck, Darmstadt, Germany) for five minutes for chromogen visualization (IHC). For both chromogen and fluorescence visualization sections were incubated with 1% bovine serum albumin (BSA, Sigma, St. Louis, Mo., USA; diluted in PBS) for 30 minutes. Sections were then incubated with rabbit anti-human […] […] The choices of optical sections and scan depths were determined from the centre position of the majority of nuclei (DAPI labeling) in the scanned field. Sequential scanning was performed of channels displaying AF488, HiLyte Fluor 647, DAPI and Texas Red fluorescence. For each channel the renal profile with the highest fluorescence intensities was selected as a reference, from which the acquisition settings (laser power, PMT detector gain, digital offset) were optimized and used for all scanned areas. […]

[7] = from blood stream; cited from earlier work

C[C@@H](O)[C@H](NC(=O)[C@@H]1CSSC[C@H](NC(=O)[C@@H](Cc2ccccc2)NC(=O)CN2CCN(CC(=O)[O-])CCN(CC(=O)[O-])CCN(CC(=O)[O-])CC2)C(=O)N[C@@H](Cc2ccc(O)cc2)C(=O)N[C@H](Cc2c[nH]c3ccccc23)C(=O)N[C@@H](CCCCN)C(=O)N[C@@H]([C@@H](C)O)C(=O)N1)C(=O)O.[177Lu+3] [^177Lu-DOTATATE, ^177Lu-DOTA0, Tyr3]octreotate, reference compound]
plasma creatinine levels (marker of GFR) versus control ([1]; 150 MBq, after 1 and 8 days): significantly increased
albumin concentrations in urine (proteinuria) versus control ([1]; 150 MBq, after 1 and 8 days, more pronounced after 1 day): significantly elevated
creatinine clearance loss [2]: 3.8 % per year

B1: ^125I-A1M: Recombinant human A1M radiolabelled with 125I using the chloramine T method (protein, UniProt P02760 20-203, looked up)
Alpha-1-microglobulin: GPVPTPPDNIQVQENFNISRIYGKWYNLAIGSTCPWLKKIMDRMTVSTLVLGEGATEAEISMTSTRWRKGVCEETSGAYEKTDTDGKFLYHKSKWNITMESYVVHTNYDEYAIFLTKKFSRHHGPTITAKLYGRAPQLRETLLQDFRVVAQGVGIPEDSIFTMADRGECVPGEQEPEPILIPRV
modifications: Alpha-1-microglobulin 125I radiolabel
time of maximum (peak) uptake in the kidneys post-injection [3]: 20 min
uptake in the kidneys (biodistribution) [3]: High uptake
fraction of i.v. administered substance localized in kidneys [4]: > 30%

B2: α1-microglobulin (protein, listed as Homo sapiens)
chain: MHHHHHHHHGGGGGIEGRGPVPTPPDNIQVQENFNISRIYGKWYNLAIGSTCPWLKKIMDRMTVSTLVLGEGATEAEISMTSTRWRKGVCEETSGAYEKTDTDGKFLYHKSKWNITMESYVVHTNYDEYAIFLTKKFSRHHGPTITAKLYGRAPQLRETLLQDFRVVAQGVGIPEDSIFTMADRGECVPGEQEPEPILIPR
notes: Recombinant human A1M expressed in E. coli
maximum of injected substance found per gram kidney tissue [3]: 76%
time of maximum (peak) uptake in the kidneys post-injection [3]: 10 min
state of A1M found in blood and kidneys ([5]; 10, 20 and 60 minutes post-injection, 150 μg A1M i.v.): intact, full-length
time of highest amounts of A1M in kidneys and serum ([5]; Western blot, 10, 20 and 60 minutes post-injection): 10 min
time post-injection up to which A1M is intact, full-length ([5]; kidneys, i.v. injection): ≥ 60 min
fluorescence detection in kidney at 4 hours p.i. [6]: significant decrease
GFR (plasma creatinine) on simultaneous infusion of A1M ([1]; 150 μg A1M + 150 MBq 177Lu-DOTATATE, 1 and 8 days, highly significant after 8 days (P<0.01)): restored the GFR to control levels
proteinuria (urine albumin) on simultaneous A1M-treatment, after 1 day ([1]; 150 μg A1M + 150 MBq 177Lu-DOTATATE, 1 day): significantly reduced
significantly reduced proteinuria (urine albumin) on simultaneous A1M-treatment, after 8 days ([1]; 150 μg A1M + 150 MBq 177Lu-DOTATATE, 8 days): not
T½ of transport across the vessel walls to the extravascular compartment [7]: 2 to 3 min
